From patent publication US20250215104A1 (WALDEN BIOSCIENCES, published 2025) come the findings set out here.

The target in test [1] is T1, cynomolgus soluble urokinase plasminogen activator receptor (suPAR) (cynomolgus, UniProt Q9GK78 23-303, limits assumed).
T1 construct: Target antigen of the scFv off-rate screen; also called cynomolgus suPAR; cynomolgus uPAR
Nature of the test: BLI (Octet) off-rate screen of scFv clones. A general note: Biolayer interferometry detects binding as a change in optical thickness at a sensor tip.

Test [2] concerns the target T2, human soluble urokinase plasminogen activator receptor (suPAR) (human, UniProt Q03405 23-303, limits assumed).
T2 construct: Target antigen of the scFv off-rate screen; also called hsuPAR; human suPAR
Nature of the test: BLI (Octet) off-rate screen of scFv clones.

T1 sequence (Q9GK78 23-303 limits assumed): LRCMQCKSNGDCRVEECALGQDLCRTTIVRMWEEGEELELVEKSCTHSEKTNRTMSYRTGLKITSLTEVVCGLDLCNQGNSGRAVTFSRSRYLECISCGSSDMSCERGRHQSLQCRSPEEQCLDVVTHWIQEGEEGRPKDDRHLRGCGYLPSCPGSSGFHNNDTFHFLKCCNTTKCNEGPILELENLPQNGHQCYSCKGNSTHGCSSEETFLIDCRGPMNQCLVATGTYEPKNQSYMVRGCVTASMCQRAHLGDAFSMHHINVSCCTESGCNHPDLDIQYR
T2 sequence (Q03405 23-303 limits assumed): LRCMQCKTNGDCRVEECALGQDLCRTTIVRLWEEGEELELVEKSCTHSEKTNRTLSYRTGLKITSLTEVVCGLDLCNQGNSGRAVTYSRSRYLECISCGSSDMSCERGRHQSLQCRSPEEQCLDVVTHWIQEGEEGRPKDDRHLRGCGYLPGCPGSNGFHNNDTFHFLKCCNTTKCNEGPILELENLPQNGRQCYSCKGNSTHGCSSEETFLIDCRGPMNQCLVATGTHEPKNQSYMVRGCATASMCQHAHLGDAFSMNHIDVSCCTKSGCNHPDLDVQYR

B1: suPAR_DB06_D06 (scFv, V domains shown)
VH: QVQLVQSGAEVKKPGASVKVSCKASGYTFTNYYMHWVRQAPGQGLEWMGWIDPENGNTIYAQKFQGRVTMTRDTSTSTVYMELSSLRSEDTAVYYCARGYDVDWFVYWGQGTLVTVSS
VL: DIQMTQSPSSLSASVGDRVTITCSARSSVSYMYWYQQKPGKAPKLLIYRTSNLASGVPSRFSGSGSGTDFTLTISSLQPEDFATYYCQQYHSYPPTFGGGTKVEIK
By koff is commonly meant the first-order rate constant of dissociation. For B1, the koff in test [1] is 0.000261 s⁻¹; in test [2], 0.00406 s⁻¹.

B2: suPAR_DB06_E10 (scFv, V domains shown)
VH: QVQLVQSGAEVKKPGASVKVSCKASGDTFISYYMHWVRQAPGQGLEWMGWIDPENGNTIYDQKFQGRVTMTRDTSTSTVYMELSSLRSEDTAVYYCARGYDVDWFVYWGQGTLVTVSS
VL: DIQMTQSPSSLSASVGDRVTITCSARSSVSYMYWYQQKPGKAPKLLIYRTSNLASGVPSRFSGSGSGTDFTLTISSLQPEDFATYYCQQYHSYPPTFGGGTKVEIK
Consider B2, for which the figures for the koff in test [1] and in test [2] were 0.000271 s⁻¹ and 0.00526 s⁻¹, respectively.

B3: suPAR_DB06_E06 (scFv, V domains shown)
VH: QVQLVQSGAEVKKPGASVKVSCKASGDTSTSYYMHWVRQAPGQGLEWMGWIDHENGSTIYDQKFQGRVTMTRDTSTSTVYMELSSLRSEDTAVYYCARGYDVDWFVYWGQGTLVTVSS
VL: DIQMTQSPSSLSASVGDRVTITCSARSSVSYMYWYQQKPGKAPKLLIYRTSNLASGVPSRFSGSGSGTDFTLTISSLQPEDFATYYCQQYHSYPPTFGGGTKVEIK
As to B3, the koff in test [1] turned out to be 0.000319 s⁻¹; in test [2], 0.00135 s⁻¹.

B4: suPAR_DB06_D11 (scFv, V domains shown)
VH: QVQLVQSGAEVKKPGASVKVSCKASGYTFANYYVHWVRQAPGQGLEWVGMIDPGGGTTNYAQKFQGRVTMTRDTSTSTVYMELSSLRSEDTAVYYCARGYDVDWFVYWGQGTLVTVSS
VL: DIQMTQSPSSLSASVGDRVTITCRARQSVSYMYWYQQKPGKAPKLLIYRTSNLASGVPSRFSGSGSGTDFTLTISSLQPEDFATYYCQQYHSYPPTFGGGTKVEIK
As to B4, the koff is 0.000439 s⁻¹ in test [1] and 0.0021 s⁻¹ in test [2].

B5: suPAR_DB06_E04 (scFv, V domains shown)
VH: QVQLVQSGAEVKKPGASVKVSCKASGDTFSSYYMHWVRQAPGQGLEWMGWIDHENGNTIYDQKFQGRVTMTRDTSTSTVYMELSSLRSEDTAVYYCARGYDMDWFVYWGQGTLVTVSS
VL: DIQMTQSPSSLSASVGDRVTITCRARSSVSYMYWYQQKPGKAPKLLIYRTSNLQSGVPSRFSGSGSGTDFTLTISSLQPEDFATYYCQQYHSYPPTFGGGTKVEIK
As to B5, the results for the off-rate constant (koff) in test [1] and in test [2] were 0.000388 s⁻¹ and 0.00541 s⁻¹, respectively.

B6: suPAR_DB06_E08 (scFv, V domains shown)
VH: QVQLVQSGAEVKKPGASVKVSCKASGYGFTDYYMHWVRQAPGQGLEWMGWIDHSGGNTIYAQKFQGRVTMTRDTSTSTVYMELSSLRSEDTAVYYCARGYDVDWFVYWGQGTLVTVSS
VL: DIQMTQSPSSLSASVGDRVTITCSARQSVSYMYWYQQKPGKAPKLLIYRTSNLASGVPSRFSGSGSGTDFTLTISSLQPEDFATYYCQQYHSYPPTFGGGTKVEIK
With B6, the koff came to 2.02e-05 s⁻¹ in test [1] and 0.00335 s⁻¹ in test [2].

B7: suPAR_DB06_E07 (scFv, V domains shown)
VH: QVQLVQSGAEVKKPGASVKVSCKASGYTFTNYYLHWVRQAPGQGLEWMGWIDPHSGGTNYAQKFQGRVTMTRDTSTSTVYMELSSLRSEDTAVYYCASGYDVDWFVYWGQGTLVTVSS
VL: DIQMTQSPSSLSASVGDRVTITCSARSSVSYMYWYQQKPGKAPKLLIYRTSNLASGVPSRFSGSGSGTDFTLTISSLQPEDFATYYCQQYHSYPPTFGGGTKVEIK
On to B7, for which the koff in test [1] came out at 0.000388 s⁻¹; in test [2], 0.00497 s⁻¹.

B8: suPAR_DB06_E09 (scFv, V domains shown)
VH: QVQLVQSGAEVKKPGASVKVSCKASGHTFTNYYVHWVRQAPGQGLEWMGWIDHENGSTSYDQKFQGRVTMTRDTSTSTVYMELSSLRSEDTAVYYCARGYDVDWFVYWGQGTLVTVSS
VL: DIQMTQSPSSLSASVGDRVTITCSARSSVSYMYWYQQKPGKAPKLLIYRTSNLASGVPSRFSGSGSGTDFTLTISSLQPEDFATYYCQQYHSYPPTFGGGTKVEIK
Turning to B8, the results for the off-rate constant (koff) in test [1] and in test [2] were 0.000301 s⁻¹ and 0.00316 s⁻¹, respectively.

B9: suPAR_DB06_E11 (scFv, V domains shown)
VH: QVQLVQSGAEVKKPGASVKVSCKASGYTFTGYYMHWVRQAPGQGLEWMGWIDHENGNTIYAQKFQGRVTMTRDTSTSTVYMELSSLRSEDTAVYYCARGYDVDWFVYWGQGTLVTVSS
VL: DIQMTQSPSSLSASVGDRVTITCSASSSVSYMYWYQQKPGKAPKLLIYRTSNLASGVPSRFSGSGSGTDFTLTISSLQPEDFATYYCQQYHSYPPTFGGGTKVEIK
Turning to B9, the koff stood at 0.000723 s⁻¹ in test [1] and 0.00118 s⁻¹ in test [2].

B10: suPAR_DB06_E05 (scFv, V domains shown)
VH: QVQLVQSGAEVKKPGASVKVSCKASGYTFTSHYIQWVRQAPGQGLEWMGWIDHENGNTIYDQKFQGRVTMTRDTSTSTVYMELSSLRSEDTAVYYCARGTDVDWFVYWGQGTLVTVSS
VL: DIQMTQSPSSLSASVGDRVTITCSARSSVSYMYWYQQKPGKAPKLLIYRTSNLASGVPSRFSGSGSGTDFTLTISSLQPEDFATYYCQQYHSYPPTFGGGTKVEIK
Consider B10, for which the koff was 0.000905 s⁻¹ in test [1] and 0.00315 s⁻¹ in test [2].

B11: suPAR_DB06_D07 (scFv, V domains shown)
VH: QVQLVQSGAEVKKPGASVKVSCKASGYTFTNYYMHWVRQAPGQGLEWMGWIDHEGGNTIYAQKFQGRVTMTRDTSTSTVYMELSSLRSEDTAVYYCARGYDVDWFVYWGQGTLVTVSS
VL: DIQMTQSPSSLSASVGDRVTITCSARSSVSYMYWYQQKPGKAPKLLIYRTSNLASGVPSRFSGSGSGTDFTLTISSLQPEDFATYYCQQYHSYPPTFGGGTKVEIK
B11: the dissociation rate constant (koff) was 0.000565 s⁻¹ in test [1] and 0.00244 s⁻¹ in test [2].

B12: suPAR_DB06_D09 (scFv, V domains shown)
VH: QVQLVQSGAEVKKPGASVKVSCKASGGTFTSYYMHWVRQAPGQGLEWMGWIDHENGSTIYAQKFQGRVTMTRDTSTSTVYMELSSLRSEDTAVYYCARGYDVDWFVYWGQGTLVTVSS
VL: DIQMTQSPSSLSASVGDRVTITCSASSSVSYMYWYQQKPGKAPKLLIYRTSNLASGVPSRFSGSGSGTDFTLTISSLQPEDFATYYCQQYHSYPPTFGGGTKVEIK
As to B12, the dissociation rate constant (koff) in test [1] worked out at 0.000341 s⁻¹; in test [2] it was 0.00149 s⁻¹.

B13: suPAR_DB06_E12 (scFv, V domains shown)
VH: QVQLVQSGAEVKKPGASVKVSCKASGYTFTSYYMHWVRQAPGQGLEWMGWIDHENGNTSYAQKFQGRVTMTRDTSTSTVYMELSSLRSEDTAVYYCARGYDVDWFVYWGQGTLVTVSS
VL: DIQMTQSPSSLSASVGDRVTITCRARSSVSYMYWYQQKPGKAPKLLIYRTSNLASGVPSRFSGSGSGTDFTLTISSLQPEDFATYYCQQYHSYPPTFGGGTKVEIK
For B13, the off-rate constant (koff) worked out at 0.000164 s⁻¹ in test [1] and 0.00373 s⁻¹ in test [2].

B14: suPAR_DB06_E03 (scFv, V domains shown)
VH: QVQLVQSGAEVKKPGASVKVSCKASGFNIKDYYIHWVRQAPGQGLEWMGWIDPENGNTSYDQKFQGRVTMTRDTSTSTVYMELSSLRSEDTAVYYCARGYDVDWFVYWGQGTLVTVSS
VL: DIQMTQSPSSLSASVGDRVTITCSARSSVSYMYWYQQKPGKAPKLLIYRTSNLASGVPSRFSGSGSGTDFTLTISSLQPEDFATYYCQQYHSYPPTFGGGTKVEIK
Take B14: the koff in test [1] turned out to be 0.00037 s⁻¹; in test [2], 0.00201 s⁻¹.

B15: suPAR_DB06_D10 (scFv, V domains shown)
VH: QVQLVQSGAEVKKPGASVKVSCKASGYTFTSYYMHWVRQAPGQGLEWMGWIDPENGNTIYAQKFQGRVTMTRDTSTSTVYMELSSLRSEDTAVYYCARGYDVDWFVYWGQGTLVTVSS
VL: DIQMTQSPSSLSASVGDRVTITCSARSSVSYMYWYQQKPGKAPKLLIYRTSNLASGVPSRFSGSGSGTDFTLTISSLQPEDFATYYCQQYHSYPPTFGGGTKVEIK
On to B15, for which the figures for the off-rate constant (koff) in test [1] and in test [2] were 0.000365 s⁻¹ and 0.00425 s⁻¹, respectively.

B16: suPAR_DB06_D12 (scFv, V domains shown)
VH: QVQLVQSGAEVKKPGASVKVSCKASGGTFSSYYMHWVRQAPGQGLEWMGWIDPENGNTIYAQKFQGRVTMTRDTSTSTVYMELSSLRSEDTAVYYCARGYDVDWFVYWGQGTLVTVSS
VL: DIQMTQSPSSLSASVGDRVTITCSARQSVSYMYWYQQKPGKAPKLLIYRTSSLASGVPSRFSGSGSGTDFTLTISSLQPEDFATYYCQQYHSYPPTFGGGTKVEIK
For B16, the koff in test [1] was 0.000189 s⁻¹; in test [2], 0.00515 s⁻¹.

B17: suPAR_DB06_E02 (scFv, V domains shown)
VH: QVQLVQSGAEVKKPGASVKVSCKASGYSFTNYYMHWVRQAPGQGLEWMGWIDHENGNTIYDQKFQGRVTMTRDTSTSTVYMELSSLRSEDTAVYYCARGYDVDWFVYWGQGTLVTVSS
VL: DIQMTQSPSSLSASVGDRVTITCSARSSVSYMYWYQQKPGKAPKLLIYRTSNLASGVPSRFSGSGSGTDFTLTISSLQPEDFATYYCQQYHSYPPTFGGGTKVEIK
B17: the figures for the koff in test [1] and in test [2] were 0.000589 s⁻¹ and 0.00189 s⁻¹, respectively.

B18: suPAR_DB06_F01 (scFv, V domains shown)
VH: QVQLVQSGAEVKKPGASVKVSCKASGGTFTSYYVHWVRQAPGQGLEWMGWIDPEGGNTSYDQKFQGRVTMTRDTSTSTVYMELSSLRSEDTAVYYCARGYDVDWFVYWGQGTLVTVSS
VL: DIQMTQSPSSLSASVGDRVTITCSARSSVSYMYWYQQKPGKAPKLLIYRTSNLASGVPSRFSGSGSGTDFTLTISSLQPEDFATYYCQQYHSYPPTFGGGTKVEIK
As to B18, the koff was determined as 0.000197 s⁻¹ in test [1] and 0.00305 s⁻¹ in test [2].

B19: suPAR_DB06_D08 (scFv, V domains shown)
VH: QVQLVQSGAEVKKPGASVKVSCKASGYTFTNYYMHWVRQAPGQGLEWMGWIDPEGGNTSYDQKFQGRVTMTRDTSTSTVYMELSSLRSEDTAVYYCARGYDVDWFVYWGQGTLVTVSS
VL: DIQMTQSPSSLSASVGDRVTITCSARSSVSYMYWYQQKPGKAPKLLIYRTSNLASGVPSRFSGSGSGTDFTLTISSLQPEDFATYYCQQYHSYPPTFGGGTKVEIK
Take B19: the off-rate (koff) in test [1] stood at 0.000715 s⁻¹; in test [2], 0.00166 s⁻¹.
